Measured values: US20250026849A1 (ARCELLX, published 2025)

B1: D domain of SEQ ID NO: 560 (designed binder)
chain: MGSWVVFKQDLADINHQLEALGGSEAELAWFEWEIADFEWELQHYKGKGNPEVEALRKEAAAIRDELQAYRHN
B2: D domain of SEQ ID NO: 543 (designed binder)
chain: MGSWFEFKDYLADIKWDLEALGGSEAELAIFEHDIAYFEHNLQQYKGKGNPEVEALRKEAAAIRDELQAYRHN
B3: D domain of SEQ ID NO: 544 (designed binder)
chain: MGSWVRFKDFLADIKMDLEALGGSEAELADFEYHIAEFEHNLQEYKGKGNPEVEALRKEAAAIRDELQAYRHN
B4: D domain of SEQ ID NO: 556 (designed binder)
chain: MGSWDEFKEDLAHIKTDLEALGGSEAELALFEDEIADFEMYLQHYKGKGNPEVEALRKEAAAIRDELQAYRHN
B5: D domain of SEQ ID NO: 570 (designed binder)
chain: MGSWYEFDHRLDAIYQRLWALGGSEAELAEFEYGIAEFEEYLQDYKGKGNPEVEALISEAWAIEWELSAYRHN
B6: D domain of SEQ ID NO: 549 (designed binder)
chain: MGSWTWFKDNLAWIKEDLEALGGSEAELAWFELEIASFETALQDYKGKGNPEVEALRKEAAAIRDELQAYRHN
B7: D domain of SEQ ID NO: 550 (designed binder)
chain: MGSWTYFKNDLAGIKEDLEALGGSEAELAQFEFEIAEFEWLLQDYKGKGNPEVEALRKEAAAIRDELQAYRHN
B8: D domain of SEQ ID NO: 551 (designed binder)
chain: MGSWTWFKWDLADIKGDLEALGGSEAELAFFEEEIAEFEWRLQDYKGKGNPEVEALRKEAAAIRDELQAYRHN
B9: D domain of SEQ ID NO: 567 (designed binder)
chain: MGSWAEFKQRLAAIKTRLEALGGSEAELAAFEWEIVAFFSELFAYKGKGNPEVEALRDEAIAIETELVAYRHN
B10: D domain of SEQ ID NO: 566 (designed binder)
chain: MGSWAEFKQRLAAIKTRLEALGGSEAELAAFMDEIMAFEWELWAYKGKGNPEVEALMNEAFAIDVELYAYRHN
B11: D domain of SEQ ID NO: 571 (designed binder)
chain: MGSWYEFDMRLDAIWERLTALGGSEAELADFEQYIAEFERQLQDYKGKGNPEVEALFDEAWAIEDELYAYRHN
B12: D domain of SEQ ID NO: 563 (designed binder)
chain: MGSWSWFQWDLAGIKDHLEALGGSEAELAEFESEIAYFEDELQWYKGKGNPEVEALRKEAAAIRDELQAYRHN
B13: D domain of SEQ ID NO: 562 (designed binder)
chain: MGSWHWFKEDLAMITDVLEALGGSEAELAAFESEIAVFEADLQYYKGKGNPEVEALRKEAAAIRDELQAYRHN
B14: D domain of SEQ ID NO: 561 (designed binder)
chain: MGSWFQFKEFLAMITHNLEALGGSEAELAEFEHDIALFESELQQYKGKGNPEVEALRKEAAAIRDELQAYRHN
B15: D domain of SEQ ID NO: 546 (designed binder)
chain: MGSWHVFKTELADIKFYLEALGGSEAELAMFELWIAEFEHELQDYKGKGNPEVEALRKEAAAIRDELQAYRHN
B16: D domain of SEQ ID NO: 553 (designed binder)
chain: MGSWHWFKEELAEIKEDLVALGGSEAELAWFEYDIAMFELSLQNYKGKGNPEVEALRKEAAAIRDELQAYRHN
B17: D domain of SEQ ID NO: 554 (designed binder)
chain: MGSWNDFKEELAWIKFDLEALGGSEAELAWFEEDIAMFEQQLQAYKGKGNPEVEALRKEAAAIRDELQAYRHN
B18: D domain of SEQ ID NO: 534 (designed binder)
chain: MGSWNFFKYDLADIMAYLEALGGSEAELAFFEDEIANFEHDLQKYKGKGNPEVEALRKEAAAIRDELQAYRHN
B19: D domain of SEQ ID NO: 557 (designed binder)
chain: MGSWDFFKYDLANINEWLEALGGSEAELADFEYGIADFELWLQDYKGKGNPEVEALRKEAAAIRDELQAYRHN
B20: D domain of SEQ ID NO: 559 (designed binder)
chain: MGSWAEFKHDLADIKRELEALGGSEAELAWFELSIAFFEDELQHYKGKGNPEVEALRKEAAAIRDELQAYRHN
B21: D domain of SEQ ID NO: 555 (designed binder)
chain: MGSWWDFKDWLAEIKHDLEALGGSEAELALFESEIADFEFGLQWYKGKGNPEVEALRKEAAAIRDELQAYRHN
B22: D domain of SEQ ID NO: 568 (designed binder)
chain: MGSWWEFDHRLTAIDTRLQALGGSEAELAEFESSIAEFEWWLQDYKGKGNPEVEALFAEAEAIYVELDAYRHN
B23: D domain of SEQ ID NO: 565 (designed binder)
chain: MGSWFEFKWTLALIKQELEALGGSEAELADFEQEIAEFEWWLQTYKGKGNPEVEALRKEAAAIRDELQAYRHN
B24: D domain of SEQ ID NO: 558 (designed binder)
chain: MGSWYQFKDDLAHIKHLLEALGGSEAELAVFEYIIADFESFLQIYKGKGNPEVEALRKEAAAIRDELQAYRHN
B25: D domain of SEQ ID NO: 537 (designed binder)
chain: MGSWFMFKEELADIKDWLEALGGSEAELASFESYIAWFEQDLQWYKGKGNPEVEALRKEAAAIRDELQAYRHN
B26: D domain of SEQ ID NO: 569 (designed binder)
chain: MGSWWEFQFRLYAIDQRLLALGGSEAELAEFEQDIADFEWMLQDYKGKGNPEVEALMLEADAIEAELKAYRHN
B27: D domain of SEQ ID NO: 540 (designed binder)
chain: MGSWDFFKEELAEIKHYLEALGGSEAELAFFEFWIADFEQDLQEYKGKGNPEVEALRKEAAAIRDELQAYRHN
B28: D domain of SEQ ID NO: 541 (designed binder)
chain: MGSWFNFKEELAVIKFQLEALGGSEAELAFFEWVIADFEDDLQEYKGKGNPEVEALRKEAAAIRDELQAYRHN
B29: D domain of SEQ ID NO: 572 (designed binder)
chain: MGSWSEFDSRLDAIAYRLFALGGSEAELAQFEWIIADFEEDLQMYKGKGNPEVEALFSEAYAIEIELNAYRHN
B30: D domain of SEQ ID NO: 552 (designed binder)
chain: MGSWLYFKEYLADIKSDLEALGGSEAELAWFEYEIADFEEQLQYYKGKGNPEVEALRKEAAAIRDELQAYRHN
B31: D domain of SEQ ID NO: 530 (designed binder)
chain: MGSWYYFKDELADIKWDLEALGGSEAELAWFEMLIAQFELDLQWYKGKGNPEVEALRKEAAAIRDELQAYRHN
B32: D domain of SEQ ID NO: 542 (designed binder)
chain: MGSWYQFKTELAWIKDDLEALGGSEAELAWFEWVIADFEDDLQFYKGKGNPEVEALRKEAAAIRDELQAYRHN
B33: D domain of SEQ ID NO: 531 (designed binder)
chain: MGSWMYFKDTLADIKWYLEALGGSEAELAFFEDWIAEFEDDLQVYKGKGNPEVEALRKEAAAIRDELQAYRHN
B34: D domain of SEQ ID NO: 532 (designed binder)
chain: MGSWYQFKHDLADIKYGLEALGGSEAELAWFEDDIADFELDLQYYKGKGNPEVEALRKEAAAIRDELQAYRHN
B35: D domain of SEQ ID NO: 533 (designed binder)
chain: MGSWYVFKDDLADIKYMLEALGGSEAELAWFEWEIANFEFDLQYYKGKGNPEVEALRKEAAAIRDELQAYRHN
B36: D domain of SEQ ID NO: 564 (designed binder)
chain: MGSWTEFKGELAEIKWILEALGGSEAELAFFEDEIAAFEWDLQKYKGKGNPEVEALRKEAAAIRDELQAYRHN
B37: D domain of SEQ ID NO: 545 (designed binder)
chain: MGSWWLFKEQLALIKYNLEALGGSEAELADFESWIAEFEHQLQEYKGKGNPEVEALRKEAAAIRDELQAYRHN
B38: D domain of SEQ ID NO: 547 (designed binder)
chain: MGSWIWFKDWLADIKDLLEALGGSEAELAEFEYDIALFEDQLQAYKGKGNPEVEALRKEAAAIRDELQAYRHN
B39: D domain of SEQ ID NO: 548 (designed binder)
chain: MGSWGWFKHELAFIKADLEALGGSEAELAWFEEEIAEFEYELQFYKGKGNPEVEALRKEAAAIRDELQAYRHN
B40: D domain of SEQ ID NO: 535 (designed binder)
chain: MGSWHWFKIVLADIKDGLEALGGSEAELAYFETTIADFEMDLQHYKGKGNPEVEALRKEAAAIRDELQAYRHN
B41: D domain of SEQ ID NO: 536 (designed binder)
chain: MGSWHWFKIVLADIKDGLEALGGSEAELAYFETTIADFEMDLHHYKGKGNPEVEALRKEAAAIRDELQAYRHN
B42: D domain of SEQ ID NO: 538 (designed binder)
chain: MGSWFMFKQELAWIKEDLEALGGSEAELADFEWDIAEFEWDLQYYKGKGNPEVEALRKEAAAIRDELQAYRHN
B43: D domain of SEQ ID NO: 539 (designed binder)
chain: MGSWQIFKGELAYIKQYLEALGGSEAELAFFEFDIAEFEEDLQYYKGKGNPEVEALRKEAAAIRDELQAYRHN

Molecular target: T1, CD123 (Homo sapiens (Human), UniProt P26951 19-305, limits assumed)
T1 construct: The CD123 construct used in the ELISA is not described; also called CD123-Signal
T1 sequence: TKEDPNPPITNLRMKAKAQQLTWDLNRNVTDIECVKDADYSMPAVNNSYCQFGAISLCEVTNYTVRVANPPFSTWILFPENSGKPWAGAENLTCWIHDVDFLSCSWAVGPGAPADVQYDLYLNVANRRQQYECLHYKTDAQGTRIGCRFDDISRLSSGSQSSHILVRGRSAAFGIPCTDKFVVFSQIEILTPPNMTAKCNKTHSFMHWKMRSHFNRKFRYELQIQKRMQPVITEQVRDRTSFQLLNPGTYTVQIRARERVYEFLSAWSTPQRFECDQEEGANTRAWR
Assay: ELISA
Set-up: unit not given here

Q: How did the ELISA_avg turn out when B1 was run?
A: The ELISA_avg was 3.6.

Q: How did the ELISA_avg turn out when B2 was run?
A: The ELISA_avg was 3.8.

Q: Which ELISA_avg does the source give for B3 here?
A: The ELISA_avg was 5.8.

Q: For B4, which ELISA_avg is on record?
A: The ELISA_avg was 6.3.

Q: With B5 as the binder, how does the ELISA_avg read?
A: Its ELISA_avg is 4.6.

Q: B6 was tested. Which ELISA_avg did it give?
A: The ELISA_avg was 6.9.

Q: How did the ELISA_avg turn out when B7 was run?
A: Its ELISA_avg is 3.6.

Q: How did the ELISA_avg turn out when B8 was run?
A: The ELISA_avg was 5.9.

Q: B9 was tested. Which ELISA_avg did it give?
A: Its ELISA_avg is 3.6.

Q: For B10, which ELISA_avg is on record?
A: Its ELISA_avg is 3.4.

Q: Which ELISA_avg does the source give for B11 here?
A: Its ELISA_avg is 13.7.

Q: For B12, which ELISA_avg is on record?
A: The ELISA_avg was 12.9.

Q: Which ELISA_avg does the source give for B13 here?
A: The ELISA_avg was 5.2.

Q: B14 was tested. Which ELISA_avg did it give?
A: The ELISA_avg was 3.1.

Q: How did the ELISA_avg turn out when B15 was run?
A: The ELISA_avg was 5.4.

Q: How did the ELISA_avg turn out when B16 was run?
A: The ELISA_avg was 3.1.

Q: For B17, which ELISA_avg is on record?
A: The ELISA_avg was 3.8.

Q: B18 was tested. Which ELISA_avg did it give?
A: The ELISA_avg was 4.4.

Q: How did the ELISA_avg turn out when B19 was run?
A: The ELISA_avg was 5.5.

Q: With B20 as the binder, how does the ELISA_avg read?
A: The ELISA_avg was 3.3.

Q: For B21, which ELISA_avg is on record?
A: The ELISA_avg was 4.2.

Q: Which ELISA_avg does the source give for B22 here?
A: Its ELISA_avg is 4.3.

Q: Which ELISA_avg does the source give for B23 here?
A: The ELISA_avg was 4.9.

Q: Which ELISA_avg does the source give for B24 here?
A: The ELISA_avg was 4.

Q: With B25 as the binder, how does the ELISA_avg read?
A: The ELISA_avg was 5.7.

Q: Which ELISA_avg does the source give for B26 here?
A: The ELISA_avg was 3.1.

Q: How did the ELISA_avg turn out when B27 was run?
A: The ELISA_avg was 3.7.

Q: For B28, which ELISA_avg is on record?
A: Its ELISA_avg is 6.1.

Q: With B29 as the binder, how does the ELISA_avg read?
A: Its ELISA_avg is 4.3.

Q: How did the ELISA_avg turn out when B30 was run?
A: The ELISA_avg was 3.7.

Q: With B31 as the binder, how does the ELISA_avg read?
A: Its ELISA_avg is 4.

Q: Which ELISA_avg does the source give for B32 here?
A: Its ELISA_avg is 6.6.

Q: How did the ELISA_avg turn out when B33 was run?
A: Its ELISA_avg is 3.1.

Q: How did the ELISA_avg turn out when B34 was run?
A: The ELISA_avg was 4.7.

Q: For B35, which ELISA_avg is on record?
A: The ELISA_avg was 3.8.

Q: For B36, which ELISA_avg is on record?
A: Its ELISA_avg is 8.2.

Q: Which ELISA_avg does the source give for B37 here?
A: The ELISA_avg was 4.1.

Q: Which ELISA_avg does the source give for B38 here?
A: Its ELISA_avg is 7.3.

Q: B39 was tested. Which ELISA_avg did it give?
A: The ELISA_avg was 3.3.

Q: For B40, which ELISA_avg is on record?
A: Its ELISA_avg is 4.3.

Q: With B41 as the binder, how does the ELISA_avg read?
A: The ELISA_avg was 3.5.

Q: How did the ELISA_avg turn out when B42 was run?
A: The ELISA_avg was 7.2.

Q: How did the ELISA_avg turn out when B43 was run?
A: The ELISA_avg was 4.7.
